Numbering of substitutions follows the chain as printed.
Key:
Experiment in all cases: cell_activity
[1] = biological target: T1, CbbR A167V (Ralstonia eutropha) (UniProt P42722); settings: beta-galactosidase, chemoheterotrophic; chemoautotrophic 7373
T1 sequence: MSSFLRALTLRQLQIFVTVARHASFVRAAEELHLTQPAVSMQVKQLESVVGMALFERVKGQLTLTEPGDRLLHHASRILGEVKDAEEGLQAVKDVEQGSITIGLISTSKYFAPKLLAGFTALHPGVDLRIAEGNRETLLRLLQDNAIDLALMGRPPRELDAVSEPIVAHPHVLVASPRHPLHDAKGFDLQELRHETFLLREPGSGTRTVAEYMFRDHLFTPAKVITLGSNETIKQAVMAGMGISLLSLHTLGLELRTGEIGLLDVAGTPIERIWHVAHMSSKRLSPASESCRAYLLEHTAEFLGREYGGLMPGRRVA

[2] = biological target: T2, CbbR D148N (Ralstonia eutropha) (UniProt P42722); settings: beta-galactosidase, chemoheterotrophic; chemoautotrophic 6442
T2 sequence: T1 sequence with D148N, V167A

[3] = biological target: T3, CbbR E87K/G242S (Ralstonia eutropha) (UniProt P42722); settings: beta-galactosidase, chemoheterotrophic; chemoautotrophic 4820
T3 sequence: T1 sequence with E87K, V167A, G242S

[4] = biological target: T4, CbbR G205D/R283H (Ralstonia eutropha) (UniProt P42722); settings: beta-galactosidase, chemoheterotrophic; chemoautotrophic 4480
T4 sequence: T1 sequence with V167A, G205D, R283H

[5] = biological target: T5, CbbR L79F (Ralstonia eutropha) (UniProt P42722); settings: beta-galactosidase, chemoheterotrophic; chemoautotrophic 6840
T5 sequence: T1 sequence with L79F, V167A

[6] = biological target: T6, CbbR P221S/T299I (Ralstonia eutropha) (UniProt P42722); settings: beta-galactosidase, chemoheterotrophic; chemoautotrophic 5312
T6 sequence: T1 sequence with V167A, P221S, T299I

[7] = biological target: T7, CbbR P269S/T299I (Ralstonia eutropha) (UniProt P42722); settings: beta-galactosidase, chemoheterotrophic; chemoautotrophic 3879
T7 sequence: T1 sequence with V167A, P269S, T299I

[8] = biological target: T8, CbbR T232I (Ralstonia eutropha) (UniProt P42722); settings: beta-galactosidase, chemoheterotrophic; chemoautotrophic 5005
T8 sequence: T1 sequence with V167A, T232I

cbb promoter in lacZ reporter strain
activity [1]: 768 nmol/min/mg | activity [2]: 343 nmol/min/mg | activity [3]: 303 nmol/min/mg | activity [4]: 2310 nmol/min/mg | activity [5]: 218 nmol/min/mg | activity [6]: 655 nmol/min/mg | activity [7]: 617 nmol/min/mg | activity [8]: 303 nmol/min/mg

Reference: patent US20140087436
